From patent US20140221623A1 (Ablynx, published 2014)
Several values for one entry are separate records, joined by “and”; a condition that tells them apart may be missing. Equal entries are not always repeated. Where two headings read alike, the source gives them in different places.

B1: IL6R04 (VHH)
VHH: EVQLVESGGGLVQAGGSLRLSCAASGFTFDDYDIGWFRQAPGKEREGVSGISSSDGNTYYADSVKGRFTISSDNAKNTVYLQMNSLKPEDTAVYYCAAEPPDSSWYLDGSPEFFKYWGQGTQVTVSS
notes: also called PMP32C9; PMP 32 C9
B2: IL6R88 (VHH)
VHH: EVQLVESGGGLVQPGGSLRLSCAASGFTFDDYGMSWVRQAPGKGTEWVSAISWNGNNTYYTESMKGRFTISRDNAKNTLYLQMNSLRPEDTAVYYCVKGSTAIVGVPPTYPDEYDYWGQGTLVTVSS
notes: Humanized variant of IL6R13

Columns and labels:
Human soluble IL6-R [1] = target: T1, Human soluble IL6-R (human, UniProt P08887 20-358); experiment: SPR (Biacore 3000), IL6-R on CM5 chip
T1 construct: Bought soluble receptor; biotinylated in some Alphascreen assays; also called sIL6-R; hIL-6R
T1 sequence (looked up): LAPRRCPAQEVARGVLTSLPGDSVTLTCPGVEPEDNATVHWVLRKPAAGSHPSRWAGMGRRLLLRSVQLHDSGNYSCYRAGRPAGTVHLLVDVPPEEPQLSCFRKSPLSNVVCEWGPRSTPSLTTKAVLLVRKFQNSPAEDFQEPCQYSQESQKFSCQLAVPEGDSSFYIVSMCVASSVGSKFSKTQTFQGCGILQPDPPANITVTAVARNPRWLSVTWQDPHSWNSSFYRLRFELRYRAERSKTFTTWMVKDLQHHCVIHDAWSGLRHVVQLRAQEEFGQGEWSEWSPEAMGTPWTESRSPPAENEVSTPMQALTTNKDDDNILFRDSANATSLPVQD

Human soluble IL6-R [2] = target: T1, Human soluble IL6-R; experiment: Alphascreen, 100 nM Nanobody; competitor Reference-Fab on beads
IL6-R on U266 cells [3] = target: T2, IL6-R on U266 cells (human, UniProt P08887 20-468); experiment: cell-based or functional assay
T2 sequence (looked up): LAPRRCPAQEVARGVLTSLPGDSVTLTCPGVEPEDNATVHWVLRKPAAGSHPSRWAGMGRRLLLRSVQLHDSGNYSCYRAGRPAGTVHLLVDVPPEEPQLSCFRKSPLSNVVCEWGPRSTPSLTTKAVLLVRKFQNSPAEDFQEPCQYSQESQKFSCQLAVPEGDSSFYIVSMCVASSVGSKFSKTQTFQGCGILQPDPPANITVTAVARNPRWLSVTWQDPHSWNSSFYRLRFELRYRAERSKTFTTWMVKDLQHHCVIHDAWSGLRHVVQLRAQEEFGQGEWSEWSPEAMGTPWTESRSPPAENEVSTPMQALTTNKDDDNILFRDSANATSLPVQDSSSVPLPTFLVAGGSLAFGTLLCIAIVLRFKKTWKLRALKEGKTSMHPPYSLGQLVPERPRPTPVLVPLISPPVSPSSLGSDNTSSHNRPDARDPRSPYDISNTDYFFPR

IL6-R on U266 cells [4] = target: T2, IL6-R on U266 cells; experiment: cell-based or functional assay; remark: listed apart in the source
Human soluble IL6-R [5] = target: T1, Human soluble IL6-R; experiment: SPR (Biacore 3000), IL6-R on CM5 chip; remark: listed apart in the source
IL6-R on U266 cells [6] = target: T2, IL6-R on U266 cells; experiment: cell-based or functional assay; remark: listed apart in the source
Human soluble IL6-R [7] = target: T1, Human soluble IL6-R; experiment: SPR (Biacore), off-rate
Human soluble IL6-R [8] = target: T1, Human soluble IL6-R; experiment: SPR (Biacore 3000), IL6-R on CM5 chip; row without label, read as kd
Human soluble IL6-R [9] = target: T1, Human soluble IL6-R; experiment: SPR (Biacore 3000), IL6-R on CM5 chip; remark: listed apart in the source

| Binder | Kd (Human soluble IL6-R [1]) [nM] | koff (Human soluble IL6-R [1]) [s⁻¹] | kon (Human soluble IL6-R [1]) [M⁻¹ s⁻¹] | % binding retained in competition with Reference-Fab (Human soluble IL6-R [2]) [%] | IC50, TF-1 proliferation (IL6-R on U266 cells [3]) [nM] | IC50, XG-1 proliferation with 1 mg/mL human serum albumin (IL6-R on U266 cells [4]) [nM] | Kd (Human soluble IL6-R [5]) [nM] | koff (Human soluble IL6-R [5]) | kon (Human soluble IL6-R [5]) [M⁻¹ s⁻¹] | IC50, XG-1 proliferation (IL6-R on U266 cells [6]) [nM] | koff (Human soluble IL6-R [7]) [s⁻¹] | koff (Human soluble IL6-R [8]) [s⁻¹] | Kd (Human soluble IL6-R [9]) [nM] | koff (Human soluble IL6-R [9]) [s⁻¹] | kon (Human soluble IL6-R [9]) [M⁻¹ s⁻¹] |
| --- | --- | --- | --- | --- | --- | --- | --- | --- | --- | --- | --- | --- | --- | --- | --- |
| B1 | 0.2 | 0.000112 | 536000 | 50 | 0.545 | 0.099 | 0.26 | 9.42e-05 s⁻¹ and 0.00015 s⁻¹ | 365000 | 0.089 | 0.00015 |  |  |  |  |
| B2 |  |  |  |  |  |  |  |  |  |  |  | 0.000213 | 0.9 | 0.00031 | 230000 |
